Key:
[1] = molecular target: T1, human CD4 on cells (SKW3 cells; human PBMCs) (human, UniProt P01730 26-458); assay: FACS confirmation, supernatant on human PBMCs;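 further: flow cytometry with hybridoma supernatants incubated on human PBMCs for 30 min at 4 °C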
T1 construct: whole, on cells; SKW3 CD4 knockout cells served as the negative cell line in the primary screen; also called hCD4; huCD4

[2] = molecular target: T1, human CD4 on cells (SKW3 cells; human …); assay: FACS primary screen, hybridoma supernatant, SKW3 vs SKW3 CD4 KO cells;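 further: flow cytometry on mixed SKW3 and dye-labeled SKW3 CD4 knockout cells after 30 min at 4 °C with supernatant, ratio of binding signal on parental versus knockout cells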
[3] = molecular target: T1, human CD4 on cells (SKW3 cells; human …); assay: FACS binning on SKW3 cells; competitor OKT4-A488; background 2163, max binding 8200
[4] = molecular target: T1, human CD4 on cells (SKW3 cells; human …); assay: FACS binning on SKW3 cells; competitor OKT4a; background 5000, max binding 35000
[5] = molecular target: T1, human CD4 on cells (SKW3 cells; human …); assay: FACS binning on SKW3 cells; competitor RPA-T4-PE-Dazzle 594; background 783, max binding 15000
[6] = molecular target: T1, human CD4 on cells (SKW3 cells; human …); assay: FACS confirmation, supernatant on SKW3 cells; background gMFI 2500
[7] = molecular target: T2, huCD4-HIS (human, UniProt P01730 26-390, limits assumed); assay: ELISA binning; competitor ibalizumab; 100 ng/mL huCD4-HIS, anti-HIS HRP; background 45, max binding 3000000
T2 construct: the ELISA is not described in the text of this stretch; also called human CD4-HIS

[8] = molecular target: T1, human CD4 on cells (SKW3 cells; human …); assay: FACS confirmation, supernatant on SKW3 cells; background gMFI 3300

Row | Binder | PBMCs CD4+ gate RL1 binding, anti-mFc 647 [1] | PBMCs CD4+ percent bound of viable [1] | SKW3 WT vs KO ratio, anti-hKappa-FITC [2] | SKW3 WT vs KO ratio, anti-mFc-647 [2] | OKT4-A488 signal with supernatant [3] | OKT4a signal (anti-hu A647) with supernatant [4] | RPA-T4-PE-Dazzle 594 signal with supernatant [5] | gMFI on SKW3 WT, anti-hu Kappa FITC [6] | Ibalizumab ELISA binning signal [7] | gMFI on SKW3 WT, anti-mFc 647 [8]
1 | 75110_10O16A (antibody, V domains shown, Tested as non-clonal AlivaMab Mouse Kappa hybridoma supernatant (detected with anti-mouse Fc gamma and anti-human kappa); also called 75110_10016A) VH: EVQLVESGGGLVQPGGSLRLSCAASGFTFSNSDMHWVRQATGKGLEWVSTIGTAGDTYYPGSVKGRFTISRENAKNSLYLQMNSLRAGDTAVYYCARGGLYYYGMDVWGQGTTVTVSS VL: ENVLTQSPGTLSLSPGERATLSCRASQSVSSSYLAWYQQKPGQAPRLLIYGASSRATGIPDRFSGSGSGTDFTLTISRLEPEDFAVYYCHQFGSSPFTFGPGTKVDIK | 72100 | 23% | 1.3 | 2.4 | 8260 | 34800 | 15300 | 3160 gMFI | 2.37e+06 | 5460 gMFI
2 | 75110_01E08A (antibody, V domains shown, Tested as non-clonal AlivaMab Mouse Kappa hybridoma supernatant (detected with anti-mouse Fc gamma and anti-human kappa)) VH: EVQLVESGGGLVQPGGSLRLSCAASGFTFNNYDMHWVRQATGKGLEWVSTIGTAGDTYYPASVKGRFTIYRENAKNSLYLQMNSLRAGDTAVYYCARGGDYYYGMDVWGQGTTVTVSS VL: not shown | 302000 | 29% | 2.2 | 5.9 | 3330 | 43300 | 14400 | 6340 gMFI | 1.84e+06 | 22900 gMFI
3 | 75110_08K12A (antibody, V domains shown, Tested as non-clonal AlivaMab Mouse Kappa hybridoma supernatant (detected with anti-mouse Fc gamma and anti-human kappa)) VH: EVQLVESGGGLVQPGGSLRLSCAASGFTFSSYDMHWVRQATGKGLEWVSTIGTAGDTYYPGSVKGRFTISRENAENSLYLQMNSLRAGDTALYYCARGDYYYYGMDVWGQGTTVTVSS VL: EIVLTQSPGTLSLSPGERATLSCRASQSVSSTYLAWYQQKPGQAPRLLIYGASNRATGIPDRFSGSGSGTDFTLTISRLEPEDFAVYYCQQFGTSPFTFGPGTKVDIK | 276000 | 29% | 1.7 | 4.7 | 8660 | 39200 | 16000 | 5300 gMFI | 1.98e+06 | 16600 gMFI
4 | 75110_14G10A (antibody, V domains shown, Tested as non-clonal AlivaMab Mouse Kappa hybridoma supernatant (detected with anti-mouse Fc gamma and anti-human kappa)) VH: EVQLVESGGGLVKPGGSLRLSCAASGFTFSSYSMNWVRQAPGKGLEWVSFISSSSSYIYYADSVKGRFTISRDNAKNSLYLQMNSLRAEDTAVYYCARERGDDYGDYEGAFDIWGQGTMVTVSS VL: not shown | 142000 | 32% | 1.1 | 2.2 | 8720 | 41800 | 10100 | 3410 gMFI | 1.21e+06 | 8910 gMFI
5 | 75110_14N19A (antibody, V domains shown, Tested as non-clonal AlivaMab Mouse Kappa hybridoma supernatant (detected with anti-mouse Fc gamma and anti-human kappa)) VH: QVQLQESGPGLVKPSETLSLTCTVSGGSISRYYWSWIRQPAGKGLEWIGRICTSENPNYNPALKSRVTMSVDTSKNQFSLKLSSVTAADTAVYYCARELERLNYYGMDVWGQGTTVTVSS VL: DIQMTQFPSSLSASVGDRVTITCQASQDISNYLNWYQQKPGKAPKLLIYDASNLESGVPSRFSGRGSGTDFTFTISSLQPEDFATFYCQQYDTLPITFGQGTRLEIK | 277000 | 29% | 3.8 | 14.9 | 9080 | 29700 | 16600 | 7640 gMFI | 1.28e+06 | 28600 gMFI

— patent US20220112288A1 (published 2022)
